From patent publication US20230012273A1 (Boehringer Ingelheim, published 2023)

Key:
Assay in all cases: SPR, Ab captured, ECD-His analyte
[1] = target: T1, human SIRPβ1 extracellular domain + His-tag (NP_006056.2) (human, UniProt O00241 30-371)
T1 construct: also called hSIRPβ1; HuSIRPβ1
Procedure: (§1) The binding affinity of anti-SIRPα antibodies to the various SIRPα analytes is determined by surface plasmon resonance (SPR) using a ProteOn XPR36 (Bio-Rad). The running buffer for this experiment and all dilutions (except where stated) are done in 1×HBS-EP+. […] The sensorchip is deactivated with 1M ethanolamine HCl for 420 sec at a flowrate of 10 μl/min.
(§2) The analyte is injected over the captured antibody for 300 sec at a flowrate of 30 μl/min. The dissociation is done for 600 sec. Two-fold serial dilutions of each SIRP protein (Extracellular Domain+His-Tag) are injected as analyte with the highest concentrations indicated in table 36 below.

[2] = target: T2, human SIRPβL/SIRPβ1v3 extracellular domain + His-tag (NP_001129316.1) (human, UniProt Q5TFQ8 30-371)
T2 construct: also called hSIRPβ1v3; HuSIRPβ1v3
Procedure: as §1, §2

[3] = target: T3, human SIRPαV2 extracellular domain + His-tag (CAA71403.1) (human, UniProt P78324 31-373)
T3 construct: also called hSIRPαV2; HuSIRPαV2
Procedure: as §1, §2

[4] = target: T4, human SIRPαV1 extracellular domain + His-tag (NP_542970.1) (human, UniProt P78324 31-373)
T4 construct: also called hSIRPαV1; HuSIRPαV1
Procedure: as §1, §2

[5] = target: T5, human SIRPγ extracellular domain + His-tag (NP_061026.2) (human, UniProt Q9P1W8 29-360)
T5 construct: also called hSIRPγ; HuSIRPγ
Procedure: as §1, §2

T2 sequence (Q5TFQ8 other isoform, or with tags, fused parts or gaps): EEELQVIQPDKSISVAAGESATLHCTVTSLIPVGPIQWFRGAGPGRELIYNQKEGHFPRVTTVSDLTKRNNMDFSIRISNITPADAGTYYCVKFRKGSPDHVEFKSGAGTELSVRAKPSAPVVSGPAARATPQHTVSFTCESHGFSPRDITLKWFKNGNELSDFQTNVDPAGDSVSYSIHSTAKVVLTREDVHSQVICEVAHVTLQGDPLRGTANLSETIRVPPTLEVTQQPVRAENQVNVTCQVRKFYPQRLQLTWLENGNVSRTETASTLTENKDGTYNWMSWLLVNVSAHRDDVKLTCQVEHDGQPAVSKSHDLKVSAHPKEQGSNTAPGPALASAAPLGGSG
T1 sequence (O00241 other isoform, or with tags, fused parts or gaps): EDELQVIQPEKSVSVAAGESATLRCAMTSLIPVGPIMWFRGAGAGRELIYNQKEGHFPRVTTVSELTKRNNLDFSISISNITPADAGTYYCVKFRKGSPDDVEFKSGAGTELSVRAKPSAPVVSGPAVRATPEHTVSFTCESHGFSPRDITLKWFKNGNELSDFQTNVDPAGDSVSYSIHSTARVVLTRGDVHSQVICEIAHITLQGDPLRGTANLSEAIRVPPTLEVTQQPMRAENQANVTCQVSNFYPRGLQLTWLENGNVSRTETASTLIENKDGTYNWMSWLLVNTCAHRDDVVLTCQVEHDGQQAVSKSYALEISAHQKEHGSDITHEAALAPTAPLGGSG
T5 sequence (Q9P1W8 29-360): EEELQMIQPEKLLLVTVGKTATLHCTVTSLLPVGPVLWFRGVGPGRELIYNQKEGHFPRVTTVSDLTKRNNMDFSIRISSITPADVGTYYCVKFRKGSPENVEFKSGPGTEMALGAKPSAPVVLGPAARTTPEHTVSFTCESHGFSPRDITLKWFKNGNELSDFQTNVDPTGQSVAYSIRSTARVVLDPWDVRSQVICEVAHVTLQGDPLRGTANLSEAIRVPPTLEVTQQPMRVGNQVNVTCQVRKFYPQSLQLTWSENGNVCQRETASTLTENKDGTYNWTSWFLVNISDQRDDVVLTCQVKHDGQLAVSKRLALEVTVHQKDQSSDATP
T3 sequence (P78324 other isoform, or with tags, fused parts or gaps): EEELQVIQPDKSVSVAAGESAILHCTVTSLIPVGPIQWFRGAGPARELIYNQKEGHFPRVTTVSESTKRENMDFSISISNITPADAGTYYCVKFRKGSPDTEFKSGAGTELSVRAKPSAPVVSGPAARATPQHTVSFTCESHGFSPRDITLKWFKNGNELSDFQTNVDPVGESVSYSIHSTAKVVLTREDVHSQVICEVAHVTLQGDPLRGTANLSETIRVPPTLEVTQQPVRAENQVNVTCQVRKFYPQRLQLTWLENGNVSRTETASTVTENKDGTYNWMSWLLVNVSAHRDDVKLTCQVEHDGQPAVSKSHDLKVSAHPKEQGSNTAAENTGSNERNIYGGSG
T4 sequence (P78324 other isoform, or with tags, fused parts or gaps): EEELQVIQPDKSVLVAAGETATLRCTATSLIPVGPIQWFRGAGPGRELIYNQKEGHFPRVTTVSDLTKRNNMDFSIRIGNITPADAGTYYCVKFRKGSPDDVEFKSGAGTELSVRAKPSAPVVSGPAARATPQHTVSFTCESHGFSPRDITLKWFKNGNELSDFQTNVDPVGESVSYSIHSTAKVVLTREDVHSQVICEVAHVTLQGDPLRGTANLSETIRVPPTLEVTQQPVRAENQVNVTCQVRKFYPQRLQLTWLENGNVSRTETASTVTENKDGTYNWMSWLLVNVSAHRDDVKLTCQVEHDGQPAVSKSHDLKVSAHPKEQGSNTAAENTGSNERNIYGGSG

Row | Binder | binding result [1] | Kd [2] [nM] | Kd [3] [nM] | Kd [4] [nM] | binding result [5] | Kd [1] [nM]
1 | Antibody E15 (antibody, human IgG1, kappa, L234A L235A, V domains shown) VH: QVQLQESGPGLVRPSETLSLTCTVSGGSIRNYYWSWIRQPPGKGLEWIGFIYYTGRTFYNPSLKSRVTISLDMSINQFSLKMTSVTAADTAVYYCARVRAYSGIGLDGTDVWGQGTTVTVSS VL: DIVMTQSPLSLPVTPGEPASISCKSSQSLLYSNGYAYLDWYLQRPGQSPQLLIYLGSNRASGVPDRFSGSGSGTDFTLKISRVEAEDVGVYYCMQALQTPLTFGGGTKVEIKR | no binding (tested: 1000 nM) | 4.56 | 0.737 | 1.91 | no binding (tested: 1000 nM) | 
2 | Antibody E13 (antibody, human IgG1, kappa, L234A L235A, V domains shown) VH: QVQLQESGPGLVRPSETLSLTCTVSGGSIRNYYWSWIRQPPGKGLEWIGFIYYTGRTFYNPSLKSRVTISLDMSINQFSLKMTSVTAADTAVYYCARVRAYSGIGLDGTDVWGQGTTVTVSS VL: DIVMTQSPLSLPVTPGEPASISCKSSQSLLYSNGYAYLDWYLQRPGQSPQLLIYQGSNRASGVPDRFSGSGSGTDFTLKISRVEAEDVGVFYCMQALQTPLTFGGGTKVEIKR | no binding (tested: 1000 nM) | 4.17 | 0.69 | 1.7 | no binding (tested: 1000 nM) | 
3 | Antibody E18 (antibody, human IgG1, kappa, L234A L235A, V domains shown) VH: QVQLQESGPGLVRPSETLSLTCTVSGGSIRNYYWSWIRQPPGKGLEWIGFIYYTGRTFYNPSLKSRVTISLDMSKNQFSLKMTSVTAADTAVYYCARVRAYSGIGLDGTDVWGQGTTVTVSS VL: DIVMTQSPLSLPVTPGEPASISCKSSQSLLYSNGYAYLDWYLQRPGQSPQLLIYLGSNRASGVPDRFSGSGSGTDFTLKISRVEAEDVGVYYCMQALQTPLTFGGGTKVEIKR | no binding (tested: 1000 nM) | 4.8 | 0.898 | 2.46 | no binding (tested: 1000 nM) | 
4 | Antibody E17 (antibody, human IgG1, kappa, L234A L235A, V domains shown) VH: QVQLQESGPGLVRPSETLSLTCTVSGGSIRNYYWSWIRQPPGKGLEWMGFIYDNGRTFYNPSLKSRVTISLDMSMNQFSLKMTSVTAADTAVYYCARVRAYSGIGLDGTDVWGQGTTVTVSS VL: DIVMTQSPLSLPVTPGEPASISCKSSQSLLYSNAYNYLDWYLQRPGQSPQLLIYLGSNRASGVPDRFSGSGSGTDFTLKISRVEAEDVGVYYCMQALQTPLTFGGGTKVEIKR | no binding (tested: 1000 nM) | 5.32 | 0.797 | 2.36 | no binding (tested: 1000 nM) | 
5 | Antibody E19 (antibody, human IgG1, kappa, L234A L235A, V domains shown) VH: QVQLQESGPGLVRPSETLSLTCTVSGGSIRNYYWSWIRQPPGKGLEWIGFIYYTGRTFYNPSLKSRVTISLDMSKNQFSLKMTSVTAADTAVYYCARVRAYSGIGLDGTDVWGQGTTVTVSS VL: DIVMTQSPLSLPVTPGEPASISCKSSQSLLYSNGYAYLDWYLQRPGQSPQLLIYQGSNRASGVPDRFSGSGSGTDFTLKISRVEAEDVGVFYCMQALQTPLTFGGGTKVEIKR |  | 4.74 | 0.97 | 2.52 | no binding (tested: 1000 nM) | 1660
6 | Antibody E14 (antibody, human IgG1, kappa, L234A L235A, V domains shown) VH: QVQLQESGPGLVRPSETLSLTCTVSGGSIRNYYWSWIRQPPGKGLEWIGFIYYNGRTFYNPSLKSRVTISLDKSKNQFSLKMTSVTAADTAVYYCARVRAYSGIGLDGTDVWGQGTTVTVSS VL: DIVMTQSPLSLPVTPGEPASISCKSSQSLLYSNAYNYLDWYLQRPGQSPQLLIYLGSNRASGVPDRFSGSGSGTDFTLKISRVEAEDVGVYYCMQALQTPLTFGGGTKVEIKR | no binding (tested: 1000 nM) | 4.8 | 1.36 | 1.84 | no binding (tested: 1000 nM) | 
7 | Antibody E20 (antibody, human IgG1, kappa, L234A L235A, V domains shown) VH: QVQLQESGPGLVRPSETLSLTCTVSGGSIRNYYWSWIRQPPGKGLEWIGFIYYTGRTFYNPSLKSRVTISLDMSINQFSLKMTSVTAADTAVYYCARVRAYSGIGLDGTDVWGQGTTVTVSS VL: DIVMTQSPLSLPVTPGEPASISCKSSQSLLYSNAYNYLDWYLQRPGQSPQLLIYLGSNRASGVPDRFSGSGSGTDFTLKISRVEAEDVGVYYCMQALQTPLTFGGGTKVEIKR |  | 8.48 | 1.11 | 3.42 | no binding (tested: 1000 nM) | 435

Binders with a lower Kd [2], results first:

Row | binding result [1] | Kd [2] [nM] | Kd [3] [nM] | Kd [4] [nM] | binding result [5] | Kd [1] [nM] | Binder
8 | no binding (tested: 1000 nM) | 1.93 | 0.687 | 0.912 | no binding (tested: 1000 nM) |  | Antibody E2 (antibody, human IgG1, kappa, L234A L235A, V domains shown) VH: QVQLQESGPGLVRPSETLSLTCTVSGGSIRNYYWSWIRQPPGKGLEWIGFIYYNGRTFYNPSLKSRVTISLDMSINQFSLKMTSVTAADTAVYYCARVRAYSGIGLDGTDVWGQGTTVTVSS VL: DIVMTQSPLSLPVTPGEPASISCKSSQSLLYSNGYAYLDWYLQRPGQSPQLLIYLGSNRASGVPDRFSGSGSGTDFTLKISRVEAEDVGVYYCMQALQTPLTFGGGTKVEIKR
9 |  | 2.72 | 0.873 | 1.02 | no binding (tested: 1000 nM) | 1380 | Antibody E5 (antibody, human IgG1, kappa, L234A L235A, V domains shown) VH: QVQLQESGPGLVRPSETLSLTCTVSGGSIRNYYWSWIRQPPGKGLEWIGFIYYNGRTFYNPSLKSRVTISLDKSKNQFSLKMTSVTAADTAVYYCARVRAYSGIGLDGTDVWGQGTTVTVSS VL: DIVMTQSPLSLPVTPGEPASISCKSSQSLLYSNGYAYLDWYLQRPGQSPQLLIYQGSNRASGVPDRFSGSGSGTDFTLKISRVEAEDVGVFYCMQALQTPLTFGGGTKVEIKR
10 |  | 2.21 | 1.18 | 1.2 | no binding (tested: 1000 nM) | 874 | Antibody E7 (antibody, human IgG1, kappa, L234A L235A, V domains shown) VH: QVQLQESGPGLVRPSETLSLTCTVSGGSIRNYYWSWIRQPPGKGLEWIGFIYYNGRTFYNPSLKSRVTISLDTSKNQFSLKMTSVTAADTAVYYCARVRAYSGIGLDGTDVWGQGTTVTVSS VL: DIVMTQSPLSLPVTPGEPASISCKSSQSLLYSNGYAYLDWYLQRPGQSPQLLIYQGSNRASGVPDRFSGSGSGTDFTLKISRVEAEDVGVFYCMQALQTPLTFGGGTKVEIKR
11 |  | 2.58 | 0.542 | 1.21 | no binding (tested: 1000 nM) | 2420 | Antibody E8 (antibody, human IgG1, kappa, L234A L235A, V domains shown) VH: QVQLQESGPGLVRPSETLSLTCTVSGGSIRNYYWSWIRQPPGKGLEWMGFIYDNGRTFYNPSLKSRVTISLDMSMNQFSLKMTSVTAADTAVYYCARVRAYSGIGLDGTDVWGQGTTVTVSS VL: DIVMTQSPLSLPVTPGEPASISCKSSQSLLYSNGYAYLDWYLQRPGQSPQLLIYQGSNRASGVPDRFSGSGSGTDFTLKISRVEAEDVGVFYCMQALQTPLTFGGGTKVEIKR
12 | no binding (tested: 1000 nM) | 2.72 | 0.875 | 1.03 | no binding (tested: 1000 nM) |  | Antibody E6 (antibody, human IgG1, kappa, L234A L235A, V domains shown) VH: QVQLQESGPGLVRPSETLSLTCTVSGGSIRNYYWSWIRQPPGKGLEWIGFIYYNGRTFYNPSLKSRVTISLDKSKNQFSLKMTSVTAADTAVYYCARVRAYSGIGLDGTDVWGQGTTVTVSS VL: DIVMTQSPLSLPVTPGEPASISCKSSQSLLYSNGYAYLDWYLQRPGQSPQLLIYLGSNRASGVPDRFSGSGSGTDFTLKISRVEAEDVGVYYCMQALQTPLTFGGGTKVEIKR
13 | no binding (tested: 1000 nM) | 3.16 | 0.941 | 1.22 | no binding (tested: 1000 nM) |  | Antibody E9 (antibody, human IgG1, kappa, L234A L235A, V domains shown) VH: QVQLQESGPGLVRPSETLSLTCTVSGGSIRNYYWSWIRQPPGKGLEWIGFIYYNGRTFYNPSLKSRVTISLDMSINQFSLKMTSVTAADTAVYYCARVRAYSGIGLDGTDVWGQGTTVTVSS VL: DIVMTQSPLSLPVTPGEPASISCKSSQSLLYSNAYNYLDWYLQRPGQSPQLLIYLGSNRASGVPDRFSGSGSGTDFTLKISRVEAEDVGVYYCMQALQTPLTFGGGTKVEIKR
14 |  | 3.43 | 1.26 | 1.67 | no binding (tested: 1000 nM) | 1670 | Antibody E12 (antibody, human IgG1, kappa, L234A L235A, V domains shown) VH: QVQLQESGPGLVRPSETLSLTCTVSGGSIRNYYWSWIRQPPGKGLEWIGFIYYNGRTFYNPSLKSRVTISLDMSKNQFSLKMTSVTAADTAVYYCARVRAYSGIGLDGTDVWGQGTTVTVSS VL: DIVMTQSPLSLPVTPGEPASISCKSSQSLLYSNAYNYLDWYLQRPGQSPQLLIYLGSNRASGVPDRFSGSGSGTDFTLKISRVEAEDVGVYYCMQALQTPLTFGGGTKVEIKR
